Assay results taken from the supplement of paper PMC12042874.
± gives the uncertainty stated by the source.

Assay: amyloid nucleation score (Sup35N fusion, yeast selection) (log enrichment); library NNK3; higher = more nucleation; inactive = no reads after selection
Procedure, shortened: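 Using DiMSum, nucleation scores were taken as the log enrichment of output over input reads, centred on the mode score of non-aggregating sequences. The input and output reads came from Illumina sequencing of plasmid inserts, with sequences under 100 input reads excluded. The yeast were psi-negative, expressed Sup35N fused to peptides of 20 random codons, were induced with 100 μM copper sulfate for 24 hours, and were grown 7 days at 30°C on medium lacking adenine and uracil.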

Substance: NLYFGHKSTS
- amyloid nucleation score: inactive

Substance: VGELIGLGSLWGMEINY
- amyloid nucleation score: inactive

Substance: QYDLDWFIGRSNARDGLTDW
- amyloid nucleation score: inactive

Substance: DLQRLSNRKSKGLWSGCIGK
- amyloid nucleation score: inactive

Substance: ILSLPRRNYSKTVFNRLKAE
- amyloid nucleation score: inactive

Substance: VQGIRFRELFGRPAVRVVWH
- amyloid nucleation score: inactive

Substance: QRMTLNLDRCPMSYWGSTIP
- amyloid nucleation score: inactive

Substance: TTMVIRNAMCNILNVVRKRR
- amyloid nucleation score: 0.203 ± 0.33

Substance: CKPDLMA
- amyloid nucleation score: inactive

Substance: YRFLMLITYYFCIV
- amyloid nucleation score: 2.11 ± 0.071

Substance: HWSRFQYGLVFRNFIVQNLD
- amyloid nucleation score: inactive

Substance: NLQERAL
- amyloid nucleation score: -0.438 ± 0.88

Substance: ECTDFYGTGTFCFGSWRLSY
- amyloid nucleation score: 1.76 ± 0.064

Substance: VPGFGVLACCGQVLLFSHLF
- amyloid nucleation score: inactive

Substance: VLSTVFKAKPNHNRAFMG
- amyloid nucleation score: 0.063 ± 0.78

Substance: LRWSIEGFLVSMMKY
- amyloid nucleation score: inactive

Substance: FWLTNISFDLKFKINSSEFT
- amyloid nucleation score: 0.205 ± 0.33

Substance: CYDTFGLFYCFLVWVWDLIV
- amyloid nucleation score: inactive

Substance: ELLVVFEESIVINFLDANIW
- amyloid nucleation score: 0.674 ± 0.2

Substance: RARGDTIK
- amyloid nucleation score: inactive

Substance: IVTLCSIFDFAFVVTASTMG
- amyloid nucleation score: 1.13 ± 0.16

Substance: KMTLYIFCLAFMLWESNQII
- amyloid nucleation score: inactive

Substance: IRGDGCTGARSPTTSRAAGN
- amyloid nucleation score: inactive

Substance: FCQSFWLLQLARMPCYVESQ
- amyloid nucleation score: inactive

Substance: FSVGEFCR
- amyloid nucleation score: inactive

Substance: RAECSISSIIIYCAGRPSLI
- amyloid nucleation score: 1.07 ± 0.098

Substance: EWISLQVKNLTVSTVMLCLE
- amyloid nucleation score: inactive

Substance: FYSSSL
- amyloid nucleation score: inactive

Substance: YRNNAFPSEMHPIGRLEYAV
- amyloid nucleation score: 0.456 ± 0.15

Substance: TVVDLLVRYSAIGSCVFSVT
- amyloid nucleation score: inactive

Substance: TVMLWAWEGRWYVRFVSPDR
- amyloid nucleation score: inactive

Substance: SFFTKADAGMPDLRSFMESC
- amyloid nucleation score: inactive

Substance: GKISVMYEMIYNLTNYDGRL
- amyloid nucleation score: inactive

Substance: PPCMYTMYCEYNVLQSSSKY
- amyloid nucleation score: 1.64 ± 0.082

Substance: VMNLEPRSHVWYVTVFSHAS
- amyloid nucleation score: 1.68 ± 0.096

Substance: NNCEVNLCSLELPWKTKLMM
- amyloid nucleation score: 0.264 ± 0.85

Substance: KDYLWNILRIT
- amyloid nucleation score: inactive

Substance: YVFKYVEEVSHFSLFLWTKS
- amyloid nucleation score: inactive

Substance: SFWIV
- amyloid nucleation score: inactive

Substance: ILKSTELWKRESQFSQRVGA
- amyloid nucleation score: 4.44 ± 0.057

Substance: YINSATRFDKFM
- amyloid nucleation score: inactive

Substance: FCSVIFLISIYCTRFSLVYD
- amyloid nucleation score: inactive

Substance: PWSHSS
- amyloid nucleation score: inactive

Substance: IQWMLCAKANLIEYKGVFFI
- amyloid nucleation score: inactive

Substance: KLPVKGRMPVVF
- amyloid nucleation score: inactive

Substance: GHMWFFVFY
- amyloid nucleation score: 2.52 ± 0.061

Substance: YLSDVLSLWCSVQIWSGLYC
- amyloid nucleation score: inactive

Substance: LGASRGMFVKNLLIMASHSR
- amyloid nucleation score: inactive

Substance: RMLGLNQYCSMLICTIVNFS
- amyloid nucleation score: 1.19 ± 0.11

Substance: IQGYLANDVPMRNWPG
- amyloid nucleation score: inactive

Substance: SYFRRIRWQLEEHLLLLWR
- amyloid nucleation score: inactive

Substance: YFAWNRKVNYTRS
- amyloid nucleation score: inactive

Substance: CIQSMRH
- amyloid nucleation score: inactive

Substance: FVYFNT
- amyloid nucleation score: inactive

Substance: GWPVSLN
- amyloid nucleation score: inactive

Substance: FAYVLFATFS
- amyloid nucleation score: -0.353 ± 1.2

Substance: LGMGSSDYRGRYRSNS
- amyloid nucleation score: inactive

Substance: SIDHVLWYNIGRVGSCWSLR
- amyloid nucleation score: -0.188 ± 0.27

Substance: CHAIASVVSEYNGPLVVTVI
- amyloid nucleation score: inactive

Substance: CRRIYPFRP
- amyloid nucleation score: -0.064 ± 0.66

Substance: FFNKREKDVFSNHRQYGYWN
- amyloid nucleation score: inactive

Substance: GRDMMWAVCDFEAKLELETG
- amyloid nucleation score: inactive

Substance: LIIMNVKSSSSHKRAGVST
- amyloid nucleation score: inactive

Substance: SFLSWMVFANFKRVHPGWVP
- amyloid nucleation score: inactive

Substance: LIDKCGKHQTFMGC
- amyloid nucleation score: inactive

Substance: WLRLIA
- amyloid nucleation score: inactive
